Experimental data: article PMC7455186

Target: FLAG-Aac2 (S. cerevisiae) (UniProt P18239)
Experiment: co-IP

Chain of UniProt P18239 (P18239 whole entry): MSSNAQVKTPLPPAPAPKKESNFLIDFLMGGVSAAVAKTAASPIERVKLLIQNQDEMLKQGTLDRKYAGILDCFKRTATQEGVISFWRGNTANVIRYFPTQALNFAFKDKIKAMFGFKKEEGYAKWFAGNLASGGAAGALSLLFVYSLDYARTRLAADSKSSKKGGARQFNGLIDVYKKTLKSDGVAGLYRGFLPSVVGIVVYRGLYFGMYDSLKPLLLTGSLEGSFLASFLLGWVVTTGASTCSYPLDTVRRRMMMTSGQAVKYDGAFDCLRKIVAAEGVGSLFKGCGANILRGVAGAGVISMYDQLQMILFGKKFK

respiratory complex III (from UniProt P07256 27-457; P07257 17-368; P08067 31-215; P00127 1-147)
percent decrease of the amount co-immunoprecipitated after BKA, against CATR: 25%

respiratory complex IV (from UniProt P00401 1-534; P04037 26-155)
percent decrease of the amount co-immunoprecipitated after BKA, against CATR: 50%
